Experimental data as given in the supplement of paper PMC11316812.
± gives the standard deviation of the averaged measurements.

Legend:
MCF7 = assay: percentage of EdU-negative (G0-arrested) nuclei per well, 72 h; higher = more G0 arrest; settings: reference: sequence is the full UniProt precursor, the tested protein was the secreted form or ectodomain
hTERT-HMEC = assay: as above; settings: reference: sequence is the full UniProt precursor, the tested protein was the secreted form or ectodomain
[1] = protein concentration 0.0191429 µM
[2] = protein concentration 0.191429 µM
[3] = protein concentration 0.0225 µM
[4] = protein concentration 0.0126825 µM
[5] = protein concentration 0.126825 µM
[6] = protein concentration 0.0191325 µM
[7] = protein concentration 0.191325 µM
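Note: secreted proteins added to cultured cells, EdU pulse at the end, nuclei found by Hoechst imaging, EdU status from nuclear versus surrounding ring intensity ratio, PBS as neutral control.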

Sequence of Q9BXJ3 (chain, as listed by the source): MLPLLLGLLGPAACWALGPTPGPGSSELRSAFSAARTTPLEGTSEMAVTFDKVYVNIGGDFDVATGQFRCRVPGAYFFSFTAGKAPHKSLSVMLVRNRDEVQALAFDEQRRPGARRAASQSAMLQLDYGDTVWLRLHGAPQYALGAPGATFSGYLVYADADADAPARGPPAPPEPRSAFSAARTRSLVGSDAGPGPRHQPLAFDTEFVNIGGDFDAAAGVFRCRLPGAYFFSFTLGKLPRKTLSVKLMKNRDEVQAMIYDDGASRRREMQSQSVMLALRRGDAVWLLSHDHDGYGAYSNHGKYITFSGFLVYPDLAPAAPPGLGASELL

Row | Substance | percentage of EdU-negative (MCF7; [3]) [%] | percentage of EdU-negative (MCF7; protein concentration 0.225 µM) [%] | percentage of EdU-negative (hTERT-HMEC; [3]) [%] | percentage of EdU-negative (hTERT-HMEC; protein concentration 0.225 µM) [%] | also measured
1 | Q9BXJ3 |  |  |  |  | percentage of EdU-negative (MCF7; [1]): 27.3 ± 3.6%; percentage of EdU-negative (MCF7; [2]): 23.8 ± 1.1%; percentage of EdU-negative (hTERT-HMEC; [1]): 5.17 ± 0.79%; percentage of EdU-negative (hTERT-HMEC; [2]): 4.77 ± 0.24%
2 | MPGAAEALPTVTVTLVAGAVPPASGALTAHCIGGFWREVGVASDQSLVLTAPKRVEGLFLTLSGSNLTVKVAYNSSGSCEIEKIVGSEIDSTGKFAFPGHREIHVLDTDYEGYAILRVSLMWRGRNFRVLKYFTRSLEDKDRLGFWKFRELTADTGLYLAARPGRCAELLKEELI [Q6JVE9] | 26.5 ± 1.8 | 31 ± 2.1 | 5.03 ± 0.21 | 9.51 ± 1.1 | 
3 | MEPLRLLILLFVTELSGAHNTTVFQGVAGQSLQVSCPYDSMKHWGRRKAWCRQLGEKGPCQRVVSTHNLWLLSFLRRWNGSTAITDDTLGGTLTITLRNLQPHDAGLYQCQSLHGSEADTLRKVLVEVLADPLDHRDAGDLWFPGESESFEDAHVEHSISRSLLEGEIPFPPTSILLLLACIFLIKILAASALWAAAWHGQKPGTHPPSELDCGHDPGYQLQTLPGLRDT [Q9NZC2] | 23.6 ± 1.7 | 29.3 ± 2.9 | 5.63 ± 0.64 | 7.25 ± 1.5 | 
4 | MQAARGGAGRPERPGRPGRGPERERERPPGAGAASPCAAPGLPAGGATIHPGSPSAWPPRARAALRLWLGCVCFALVQADSPSAPVNVTVRHLKANSAVVSWDVLEDEVVIGFAISQQKKDVRMLRFIQEVNTTTRSCALWDLEEDTEYIVHVQAISIQGQSPASEPVLFKTPREAEKMASKNKDEVTMKEMGRNQQLRTGEVLIIVVVLFMWAGVIALFCRQYDIIKDNEPNNNKEKTKSASETSTPEHQGGGLLRSKI [Q8NAU1] | 27.08 ± 0.2 | 25.3 ± 1.4 | 5.26 ± 1.1 | 5.43 ± 0.82 | 
5 | MQVSKRMLAGGVRSMPSPLLACWQPILLLVLGSVLSGSATGCPPRCECSAQDRAVLCHRKRFVAVPEGIPTETRLLDLGKNRIKTLNQDEFASFPHLEELELNENIVSAVEPGAFNNLFNLRTLGLRSNRLKLIPLGVFTGLSNLTKLDISENKIVILLDYMFQDLYNLKSLEVGDNDLVYISHRAFSGLNSLEQLTLEKCNLTSIPTEALSHLHGLIVLRLRHLNINAIRDYSFKRLYRLKVLEISHWPYLDTMTPNCLYGLNLTSLSITHCNLTAVPYLAVRHLVYLRFLNLSYNPISTIEGSMLHELLRLQEIQLVGGQLAVVEPYAFRGLNYLRVLNVSGNQLTTLEESVFHSVGNLETLILDSNPLACDCRLLWVFRRRWRLNFNRQQPTCATPEFVQGKEFKDFPDVLLPNYFTCRRARIRDRKAQQVFVDEGHTVQFVCRADGDPPPAILWLSPRKHLVSAKSNGRLTVFPDGTLEVRYAQVQDNGTYLCIAANAGGNDSMPAHLHVRSYSPDWPHQPNKTFAFISNQPGEGEANSTRATVPFPFDIKTLIIATTMGFISFLGVVLFCLVLLFLWSRGKGNTKHNIEIEYVPRKSDAGISSADAPRKFNMKMI [Q96FE5] |  |  |  |  | percentage of EdU-negative (MCF7; [4]): 23.8 ± 3%; percentage of EdU-negative (MCF7; [5]): 28.9 ± 0.74%; percentage of EdU-negative (hTERT-HMEC; [4]): 4.72 ± 0.26%; percentage of EdU-negative (hTERT-HMEC; [5]): 4.37 ± 0.16%
6 | MLLPWATSAPGLAWGPLVLGLFGLLAASQPQAVPPYASENQTCRDQEKEYYEPQHRICCSRCPPGTYVSAKCSRIRDTVCATCAENSYNEHWNYLTICQLCRPCDPVMGLEEIAPCTSKRKTQCRCQPGMFCAAWALECTHCELLSDCPPGTEAELKDEVGKGNNHCVPCKAGHFQNTSSPSARCQPHTRCENQGLVEAAPGTAQSDTTCKNPLEPLPPEMSGTMLMLAVLLPLAFFLLLATVFSCIWKSHPSLCRKLGSLLKRRPQGEGPNPVAGSWEPPKAHPYFPDLVQPLLPISGDVSPVSTGLPAAPVLEAGVPQQQSPLDLTREPQLEPGEQSQVAHGTNGIHVTGGSMTITGNIYIYNGPVLGGPPGPGDLPATPEPPYPIPEEGDPGPPGLSTPHQEDGKAWHLAETEHCGATPSNRGPRNQFITHD |  |  |  |  | percentage of EdU-negative (MCF7; [6]): 26.7 ± 0.76%; percentage of EdU-negative (MCF7; [7]): 27.3 ± 0.76%; percentage of EdU-negative (hTERT-HMEC; [6]): 5.06 ± 0.25%; percentage of EdU-negative (hTERT-HMEC; [7]): 5.55 ± 1.9%
7 | MSVMKPCLMTIAILMILAQKTPGGLFRSHNGKSREPWNPCELYQGMCRNACREYEIQYLTCPNDQKCCLKLSVKITSSKNVKEDYDSNSNLSVTNSSSYSHI [Q30KQ4] | 25.4 ± 1.7 | 23.5 ± 1.3 | 5.55 ± 0.29 | 5.56 ± 0.81 | 
8 | MLDWRLASAHFILAVTLTLWSSGKVLSVDVTTTEAFDSGVIDVQSTPTVREEKSATDLTAKLLLLDELVSLENDVIETKKKRSFSGFGSPLDRLSAGSVDHKGKQRKVVDHPKRRFGIPMDRIGRNRLSNSRG | 23.9 ± 2 | 24.2 ± 1.3 | 5.01 ± 0.71 | 5.5 ± 0.22 | 
